Laboratory results published in patent US20230235004A1 (published 2023).
Where a chain is given by its changes, count along the chain named.

B1: MAdCAM antibody Table 1 clone 55 (scFv)
scFv: QVQLVQSGAEVKKPGASVKVSCKASGYTFTSYYMHWVRQAPGQGLEWMGIIDPSGGSTSYAQKFQGRVTMTRDTSTSTVYMELSSLRSEDTAVYYCAREEWSSGGVGYFDYWGQGTLVTVSSGGGGSGGGGSGGGGSGGGGSDIQMTQSPSSLSASVGDRVTITCRASQGISSYLAWYQQKPGKAPKLLIYATSSLQTGVPSRFSGSGSGTDFTLTISSLQPEDFATYYCQQTYSIPITFGQGTRLEIK
B2: MAdCAM antibody Table 1 clone 3 (scFv)
scFv: QVQLVQSGAEVKKPGASVKVSCKASGYPFIGQYLHWVRQAPGQGLEWMGIINPSGGSTSYAQKFQGRVTMTRDTSTSTVYMELSSLRSEDTAVYYCAREGRLSYGMDAWGQGTLVTVSSGGGGSGGGGSGGGGSGGGGSDIQMTQSPSSLSASVGDRVTITCRASQSISSYLAWYQQKPGKAPKLLIYGASTLESGVPSRFSGSGSGTDFTLTISSLQPEDFATYYCQQTWGPPFTFGQGTKLEIK
B3: MAdCAM antibody Table 1 clone 13 (scFv)
scFv: EVQLLESGGGLVQPGGSLRLSCAASGFTFDDYAMHWVRQAPGKGLEWVSYIDASGTTIYYADSVKGRFTISRDNSKNTLYLQMNSLRAEDTAVYYCAKDQAAAGYWYFDLWGRGTLVTVSSGGGGSGGGGSGGGGSGGGGSDIQMTQSPSSLSASVGDRVTITCQASQDISNYLNWYQQKPGKAPKLLIYKASTLESGVPSRFSGSGSGTDFTLTISSLQPEDFATYYCQQSYSTPITFGQGTRLEIK
B4: MAdCAM antibody Table 1 clone 54 (scFv)
scFv: EVQLLESGGGLVQPGGSLRLSCAASGFTFGDYAMSWVRQAPGKGLEWVAVVSYDGTNKYYADSVKGRFTISRDNSKNTLYLQMNSLRAEDTAVYYCAKDICSSTSCYFDLWGRGTLVTVSSGGGGSGGGGSGGGGSGGGGSDIQMTQSPSSLSASVGDRVTITCRASQNINNYVNWYQQKPGKAPKLLIYDASNLETGVPSRFSGSGSGTDFTLTISSLQPEDFATYYCQQANSFPPTFGQGTRLEIK
B5: MAdCAM antibody Table 1 clone 48 (scFv)
scFv: EVQLLESGGGLVQPGGSLRLSCAASGFTFSDHGMHWVRQAPGKGLEWVSVIYGGESTYYADSVKGRFTISRDNSKNTLYLQMNSLRAEDTAVYYCARDPAVAGGGIFDYWGQGTLVTVSSGGGGSGGGGSGGGGSGGGGSDIQMTQSPSSLSASVGDRVTITCRASQGISNYLAWYQQKPGKAPKLLIYDASNLETGVPSRFSGSGSGTDFTLTISSLQPEDFATYYCQQSYSTCYTFGQGTKLEIK
B6: MAdCAM antibody Table 1 clone 11 (scFv)
scFv: QVQLVQSGAEVKKPGASVKVSCKASGYTFTTYYMHWVRQAPGQGLEWMGGFDPEDGETIYAQKFQGRVTMTRDTSTSTVYMELSSLRSEDTAVYYCARHAVAGAVGAGYYYYGMDVWGQGTMVTVSSGGGGSGGGGSGGGGSGGGGSDIQMTQSPSSLSASVGDRVTITCRASESISNWLAWYQQKPGKAPKLLIYAASTLQSGVPSRFSGSGSGTDFTLTISSLQPEDFATYYCQQSYSVPFTFGPGTKVDIK
B7: MAdCAM antibody Table 1 clone 58 (scFv)
scFv: QVQLVQSGAEVKKPGASVKVSCKASGYTFTGYYMHWVRQAPGQGLEWMGIINPSGGNTKYAQKFQGRVTMTRDTSTSTVYMELSSLRSEDTAVYYCTTADYYYYMDVWGKGTTVTVSSGGGGSGGGGSGGGGSGGGGSDIQMTQSPSSLSASVGDRVTITCRASQGISNYLAWYQQKPGKAPKLLIYAASSLQSGVPSRFSGSGSGTDFTLTISSLQPEDFATYYCQQYYSNADFGQGTKVEIK
B8: MAdCAM antibody Table 1 clone 52 (scFv)
scFv: EVQLLESGGGLVQPGGSLRLSCAASGFTFSNSDMNWVRQAPGKGLEWVAHIWNDGSQKYYADSVKGRFTISRDNSKNTLYLQMNSLRAEDTAVYYCARDRTDPGYSSAMDVWGQGTTVTVSSGGGGSGGGGSGGGGSGGGGSDIQMTQSPSSLSASVGDRVTITCRASQDIRNYLGWYQQKPGKAPKLLIYDASSLETGVPSRFSGSGSGTDFTLTISSLQPEDFATYYCQQATSLPLTFGGGTKVEIK
B9: MAdCAM antibody Table 1 clone 57 (scFv)
scFv: QVQLVQSGAEVKKPGASVKVSCKASGYTFTSYYMHWVRQAPGQGLEWMGIINPSGGSTSYAQKFQGRVTMTRDTSTSTVYMELSSLRSEDTAVYYCARDSVAGTGGRYYGMDVWGQGTLVTVSSGGGGSGGGGSGGGGSGGGGSDIQMTQSPSSLSASVGDRVTITCRASQGISNYFAWYQQKPGKAPKLLIYAASSLQGGVPSRFSGSGSGTDFTLTISSLQPEDFATYYCQQSYSLPYTFGQGTKLEIK
B10: MAdCAM antibody Table 1 clone 47 (scFv)
scFv: EVQLLESGGGLVQPGGSLRLSCAASGFSFSDYGMHWVRQAPGKGLEWVSAISGSGGSTYYADSVKGRFTISRDNSKNTLYLQMNSLRAEDTAVYYCARDGGWQPAAILDYWGQGTLVTVSSGGGGSGGGGSGGGGSGGGGSDIQMTQSPSSLSASVGDRVTITCRASQGISNNLNWYQQKPGKAPKLLIYDASNLETGVPSRFSGSGSGTDFTLTISSLQPEDFATYYCQQSYSTPLTFGGGTKVEIK
B11: MAdCAM antibody Table 1 clone 50 (scFv)
scFv: QVQLVQSGAEVKKPGASVKVSCKASGYTFTSYDINWVRQAPGQGLEWMGWINPNSGTTGYAQKFQGRVTMTRDTSTSTVYMELSSLRSEDTAVYYCARSPYYYYGMDVWGQGTTVTVSSGGGGSGGGGSGGGGSGGGGSDIQMTQSPSSLSASVGDRVTITCRASHFISRWVAWYQQKPGKAPKLLIYAASTLQSGVPSRFSGSGSGTDFTLTISSLQPEDFATYYCQQSYSGISFGPGTKVDIK
B12: MAdCAM antibody Table 1 clone 49 (scFv)
scFv: QVQLVQSGAEVKKPGASVKVSCKASGDTFTGYYIHWVRQAPGQGLEWMGWINPNSGGTNYAQKFQGRVTMTRDTSTSTVYMELSSLRSEDTAVYYCARSGLWLGSYYGMDVWGQGTLVTVSSGGGGSGGGGSGGGGSGGGGSDIQMTQSPSSLSASVGDRVTITCRASQTISIWLAWYQQKPGKAPKLLIYDASTLQSGVPSRFSGSGSGTDFTLTISSLQPEDFATYYCQQYSSYPLTFGQGTKVEIK
B13: MAdCAM antibody Table 1 clone 12 (scFv)
scFv: QVQLVQSGAEVKKPGASVKVSCKASGYTFTGYYMHWVRQAPGQGLEWMGWIGPNSGDTNYAQKFQGRVTMTRDTSTSTVYMELSSLRSEDTAVYYCARDLDHNWYFDLWGRGTLVTVSSGGGGSGGGGSGGGGSGGGGSDIVMTQSPLSLPVTPGEPASISCRSSQSLLHSNGYNYLDWYLQKPGQSPQLLIYSSSNRAPGVPDRFSGSGSGTDFTLKISRVEAEDVGVYYCMQALHIPLTFGGGTKVEIK
B14: MAdCAM antibody Table 1 clone 51 (scFv)
scFv: EVQLLESGGGLVQPGGSLRLSCAASGFTFNNYGMNWVRQAPGKGLEWVSRINSDGSSTSYADSVKGRFTISRDNSKNTLYLQMNSLRAEDTAVYYCARGAYYYYYMDVWGQGTLVTVSSGGGGSGGGGSGGGGSGGGGSEIVMTQSPATLSVSPGERATLSCRASQSVSGSYLAWYQQKPGQAPRLLIYATSSRASGIPARFSGSGSGTEFTLTISSLQSEDFAVYYCQQYYSGLTFGQGTKVEIK
B15: MAdCAM antibody Table 1 clone 53 (scFv)
scFv: QVQLVQSGAEVKKPGASVKVSCKASGYTFTSYDINWVRQAPGQGLEWMGWMNPNSGNTGYAQKFQGRVTMTRDTSTSTVYMELSSLRSEDTAVYYCAKDSDYSNLLWDYWGQGTLVTVSSGGGGSGGGGSGGGGSGGGGSDIQMTQSPSSLSASVGDRVTITCRASQDITNDLGWYQQKPGKAPKLLIYQASSLESGVPSRFSGSGSGTDFTLTISSLQPEDFATYYCQQSYTIPLTFGQGTKVEIK
B16: MAdCAM antibody Table 1 clone 45 (scFv)
scFv: EVQLLESGGGLVQPGGSLRLSCAASGFSVSSNYMSWVRQAPGKGLEWVAGISYDGSSKPYADSVKGRFTISRDNSKNTLYLQMNSLRAEDTAVYYCARSRGIAARPLQHWGQGTLVTVSSGGGGSGGGGSGGGGSGGGGSDIVMTQSPDSLAVSLGERATINCKSSQSVLYSSNNKNYLAWYQQKPGQPPKLLIYWASTRQSGVPDRFSGSGSGTDFTLTISSLQAEDVAVYYCHQYYGHPPTFGGGTKVEIK
B17: MAdCAM antibody Table 1 clone 46 (scFv)
scFv: B16 scFv with W196Q

These binders were tested against T1, human MAdCAM expressed on cells (human, UniProt Q13477 19-382) (assay: cell binding).
T1 construct: whole, on cells
T1 sequence (looked up): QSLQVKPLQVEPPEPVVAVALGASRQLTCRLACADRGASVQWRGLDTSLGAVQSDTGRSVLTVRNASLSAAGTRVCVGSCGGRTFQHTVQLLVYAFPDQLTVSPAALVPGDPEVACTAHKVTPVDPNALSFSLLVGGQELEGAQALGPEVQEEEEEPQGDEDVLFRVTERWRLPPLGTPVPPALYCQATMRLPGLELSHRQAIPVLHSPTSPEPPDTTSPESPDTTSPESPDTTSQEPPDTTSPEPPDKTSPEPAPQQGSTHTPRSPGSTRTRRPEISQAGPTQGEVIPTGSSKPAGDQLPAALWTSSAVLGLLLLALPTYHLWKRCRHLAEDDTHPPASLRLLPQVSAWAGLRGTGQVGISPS

Question: Does B1 bind?
Answer: binds

Question: Does B2 bind?
Answer: binds

Question: Does B3 bind?
Answer: binds

Question: Does B4 bind?
Answer: binds

Question: Does B5 bind?
Answer: binds

Question: Does B6 bind?
Answer: binds

Question: Does B7 bind?
Answer: binds

Question: Does B8 bind?
Answer: binds

Question: Does B9 bind?
Answer: binds

Question: Does B10 bind?
Answer: binds

Question: Does B11 bind?
Answer: binds

Question: Does B12 bind?
Answer: binds

Question: Does B13 bind?
Answer: binds

Question: Does B14 bind?
Answer: binds

Question: Does B15 bind?
Answer: binds

Question: Does B16 bind?
Answer: binds

Question: Does B17 bind?
Answer: binds

The binders below were run against T2, mouse MAdCAM expressed on cells (mouse, UniProt Q61826 22-405) (assay: cell binding).
T2 construct: whole, on cells
T2 sequence (looked up): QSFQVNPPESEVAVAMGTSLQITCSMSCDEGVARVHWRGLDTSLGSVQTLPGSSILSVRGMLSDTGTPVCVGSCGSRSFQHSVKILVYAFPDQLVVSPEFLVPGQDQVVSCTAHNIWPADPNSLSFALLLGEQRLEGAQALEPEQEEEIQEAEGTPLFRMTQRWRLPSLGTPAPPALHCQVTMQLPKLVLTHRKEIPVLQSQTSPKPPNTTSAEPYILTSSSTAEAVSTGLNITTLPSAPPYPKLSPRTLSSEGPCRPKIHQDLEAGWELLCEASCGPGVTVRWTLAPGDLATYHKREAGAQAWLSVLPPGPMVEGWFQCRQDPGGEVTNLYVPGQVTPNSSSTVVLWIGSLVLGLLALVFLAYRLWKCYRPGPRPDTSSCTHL

Question: Does B1 bind?
Answer: no binding

Question: Does B2 bind?
Answer: binds

Question: Does B3 bind?
Answer: no binding

Question: Does B4 bind?
Answer: no binding

Question: Does B5 bind?
Answer: no binding

Question: Does B6 bind?
Answer: no binding

Question: Does B7 bind?
Answer: no binding

Question: Does B8 bind?
Answer: no binding

Question: Does B9 bind?
Answer: no binding

Question: Does B10 bind?
Answer: no binding

Question: Does B11 bind?
Answer: no binding

Question: Does B12 bind?
Answer: no binding

Question: Does B13 bind?
Answer: no binding

Question: Does B14 bind?
Answer: no binding

Question: Does B15 bind?
Answer: no binding

Question: Does B16 bind?
Answer: no binding

Question: Does B17 bind?
Answer: no binding
